Holding throughout (assay): SPR (Biacore), antibody captured, FcγR as analyte; amount bound / that of GpH7-B3/GpL16-k0 x 100;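 note: FcγR binding response divided by the captured antibody amount before comparison, measured at 25 °C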
(SPR reads the build-up and loss of mass on a sensor chip optically.)

For assay [1], the target named is T1, human FcγRIa (human, UniProt P12314 16-292, limits assumed).
T1 construct: also called FcgRIa; CD64

Assay [2] addresses T2, human FcγRIIIa(F) (human, UniProt P08637 17-208, limits assumed).
T2 construct: also called FcgRIIIaF; FcγRIIIa allotype F158

Assay [3] has as its target T3, human FcγRIIa(R) (human, UniProt P12318 36-217).
T3 construct: also called FcgRIIaR; FcγRIIa type R
T3 chain: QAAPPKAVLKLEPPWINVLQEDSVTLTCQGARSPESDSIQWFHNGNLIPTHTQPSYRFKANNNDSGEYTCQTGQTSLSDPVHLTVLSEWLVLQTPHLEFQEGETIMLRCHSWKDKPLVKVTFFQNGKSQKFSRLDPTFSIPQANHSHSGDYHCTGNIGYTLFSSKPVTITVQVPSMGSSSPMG

For assay [4], the target named is T4, human FcγRIIa(H) (human, UniProt P12318 36-217).
T4 construct: also called FcgRIIaH; FcγRIIa type H
T4 sequence: T3 chain with R133H

The target in assay [5] is T5, human FcγRIIb (human, UniProt P31994 43-217, limits assumed).
T5 construct: also called FcgRIIb; FcγIIB
T5 sequence: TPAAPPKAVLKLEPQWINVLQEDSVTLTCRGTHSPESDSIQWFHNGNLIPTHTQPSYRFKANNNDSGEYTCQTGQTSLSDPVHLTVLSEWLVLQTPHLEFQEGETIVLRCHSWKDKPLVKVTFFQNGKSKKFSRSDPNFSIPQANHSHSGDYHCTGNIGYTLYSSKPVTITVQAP

Substitutions are numbered along the chain they refer to.

T2 sequence (P08637 other isoform, or with tags, fused parts or gaps limits assumed): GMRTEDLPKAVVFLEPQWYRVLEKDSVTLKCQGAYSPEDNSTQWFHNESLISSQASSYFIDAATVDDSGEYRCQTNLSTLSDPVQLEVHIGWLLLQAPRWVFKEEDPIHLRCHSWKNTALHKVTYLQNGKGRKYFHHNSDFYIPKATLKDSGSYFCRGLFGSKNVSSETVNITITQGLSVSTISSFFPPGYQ
T1 sequence (P12314 16-292 limits assumed): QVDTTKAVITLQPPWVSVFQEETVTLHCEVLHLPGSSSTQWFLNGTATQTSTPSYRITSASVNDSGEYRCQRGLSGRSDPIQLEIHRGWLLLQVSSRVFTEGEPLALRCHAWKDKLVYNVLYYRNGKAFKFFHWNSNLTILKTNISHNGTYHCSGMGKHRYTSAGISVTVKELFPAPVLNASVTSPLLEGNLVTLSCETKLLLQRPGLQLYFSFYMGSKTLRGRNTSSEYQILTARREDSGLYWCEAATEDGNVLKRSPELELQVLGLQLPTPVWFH

B1: GpH7-B3/GpL16-k0 variant D270P (antibody, human IgG1)
heavy: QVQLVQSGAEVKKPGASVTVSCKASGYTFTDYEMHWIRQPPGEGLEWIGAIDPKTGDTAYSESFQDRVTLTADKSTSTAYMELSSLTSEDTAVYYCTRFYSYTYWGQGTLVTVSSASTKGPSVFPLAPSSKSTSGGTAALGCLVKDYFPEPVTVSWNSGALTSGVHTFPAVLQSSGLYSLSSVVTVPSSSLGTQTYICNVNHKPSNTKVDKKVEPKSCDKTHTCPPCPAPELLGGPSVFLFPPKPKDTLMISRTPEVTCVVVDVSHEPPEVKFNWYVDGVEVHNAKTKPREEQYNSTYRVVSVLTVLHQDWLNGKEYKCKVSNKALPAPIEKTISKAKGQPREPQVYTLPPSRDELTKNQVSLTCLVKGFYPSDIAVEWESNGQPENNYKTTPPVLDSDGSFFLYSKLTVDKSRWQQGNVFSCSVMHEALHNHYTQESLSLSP
light: DIVMTQSPLSLPVTPGEPASISCQASESLVHSNRNTYLHWYLQKPGQSPQLLIYKVSNRFSGVPDRFSGSGSGTDFTLKISRVEAEDVGVYYCSQNTHVPPTFGQGTKVEIE
notes: also called B3 variant; copies: 2 + 2
Turning to B1, the relative binding activity is 64 GpH7-B3/GpL16-k0 = 100 in assay [1]; -1 GpH7-B3/GpL16-k0 = 100 in assay [2]; -3 GpH7-B3/GpL16-k0 = 100 in assay [3]; 0 GpH7-B3/GpL16-k0 = 100 in assay [4]; 1 GpH7-B3/GpL16-k0 = 100 in assay [5].

B2: GpH7-B3/GpL16-k0 variant S298W (antibody, human IgG1)
heavy: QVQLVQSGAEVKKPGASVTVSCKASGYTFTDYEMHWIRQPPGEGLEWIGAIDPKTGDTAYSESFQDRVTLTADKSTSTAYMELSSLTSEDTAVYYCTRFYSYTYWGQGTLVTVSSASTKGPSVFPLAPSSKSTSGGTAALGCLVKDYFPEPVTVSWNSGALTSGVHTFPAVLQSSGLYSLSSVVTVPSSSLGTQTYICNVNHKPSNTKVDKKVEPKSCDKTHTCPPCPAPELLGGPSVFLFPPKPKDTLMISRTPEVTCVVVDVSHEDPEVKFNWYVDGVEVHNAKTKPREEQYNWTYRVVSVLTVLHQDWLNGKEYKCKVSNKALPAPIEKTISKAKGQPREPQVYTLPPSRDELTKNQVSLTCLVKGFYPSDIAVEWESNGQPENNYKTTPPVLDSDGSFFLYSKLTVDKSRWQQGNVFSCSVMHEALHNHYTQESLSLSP
light: B1 light
notes: as for B1
Regarding B2, the relative binding activity in assay [1] came to 69 GpH7-B3/GpL16-k0 = 100; in assay [2] it was 11 GpH7-B3/GpL16-k0 = 100; in assay [3] it was 19 GpH7-B3/GpL16-k0 = 100; in assay [4] it was 17 GpH7-B3/GpL16-k0 = 100.

B3: GpH7-B3/GpL16-k0 variant D270I (antibody, human IgG1)
heavy: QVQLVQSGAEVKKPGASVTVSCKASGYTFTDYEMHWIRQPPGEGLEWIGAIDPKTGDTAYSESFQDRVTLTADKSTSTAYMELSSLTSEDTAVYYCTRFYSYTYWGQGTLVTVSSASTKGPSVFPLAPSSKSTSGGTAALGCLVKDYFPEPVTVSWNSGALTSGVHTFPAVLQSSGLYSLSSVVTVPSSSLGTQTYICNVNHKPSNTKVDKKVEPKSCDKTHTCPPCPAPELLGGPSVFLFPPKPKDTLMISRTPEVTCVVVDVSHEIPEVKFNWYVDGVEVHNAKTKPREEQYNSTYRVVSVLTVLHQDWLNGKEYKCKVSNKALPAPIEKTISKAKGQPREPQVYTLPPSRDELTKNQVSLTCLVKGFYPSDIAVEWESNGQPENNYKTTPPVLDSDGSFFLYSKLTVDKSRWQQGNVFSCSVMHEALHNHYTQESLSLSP
light: B1 light
notes: as for B1
In the case of B3, the relative binding activity is 88 GpH7-B3/GpL16-k0 = 100 in assay [1]; 23 GpH7-B3/GpL16-k0 = 100 in assay [2]; 3 GpH7-B3/GpL16-k0 = 100 in assay [3]; 43 GpH7-B3/GpL16-k0 = 100 in assay [4]; 1 GpH7-B3/GpL16-k0 = 100 in assay [5].

B4: GpH7-B3/GpL16-k0 variant D270K (antibody, human IgG1)
heavy: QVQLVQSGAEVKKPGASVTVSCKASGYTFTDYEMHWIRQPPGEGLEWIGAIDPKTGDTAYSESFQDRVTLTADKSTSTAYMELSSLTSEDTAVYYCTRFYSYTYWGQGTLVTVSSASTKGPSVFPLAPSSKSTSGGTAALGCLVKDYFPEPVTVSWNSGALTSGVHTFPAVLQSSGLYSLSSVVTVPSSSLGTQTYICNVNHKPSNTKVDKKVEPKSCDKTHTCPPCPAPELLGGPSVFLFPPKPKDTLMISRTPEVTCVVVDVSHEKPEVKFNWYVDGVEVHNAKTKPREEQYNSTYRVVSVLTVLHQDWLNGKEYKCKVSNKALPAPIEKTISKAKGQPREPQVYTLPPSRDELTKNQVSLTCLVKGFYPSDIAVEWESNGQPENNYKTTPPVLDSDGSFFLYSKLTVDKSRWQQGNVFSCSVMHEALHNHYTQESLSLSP
light: B1 light
notes: as for B1
As to B4, the relative binding activity in assay [1] is 45 GpH7-B3/GpL16-k0 = 100; in assay [2] it was 5 GpH7-B3/GpL16-k0 = 100; in assay [3], -4 GpH7-B3/GpL16-k0 = 100; in assay [4], 16 GpH7-B3/GpL16-k0 = 100; in assay [5], -5 GpH7-B3/GpL16-k0 = 100.

B5: GpH7-B3/GpL16-k0 variant D270H (antibody, human IgG1)
heavy: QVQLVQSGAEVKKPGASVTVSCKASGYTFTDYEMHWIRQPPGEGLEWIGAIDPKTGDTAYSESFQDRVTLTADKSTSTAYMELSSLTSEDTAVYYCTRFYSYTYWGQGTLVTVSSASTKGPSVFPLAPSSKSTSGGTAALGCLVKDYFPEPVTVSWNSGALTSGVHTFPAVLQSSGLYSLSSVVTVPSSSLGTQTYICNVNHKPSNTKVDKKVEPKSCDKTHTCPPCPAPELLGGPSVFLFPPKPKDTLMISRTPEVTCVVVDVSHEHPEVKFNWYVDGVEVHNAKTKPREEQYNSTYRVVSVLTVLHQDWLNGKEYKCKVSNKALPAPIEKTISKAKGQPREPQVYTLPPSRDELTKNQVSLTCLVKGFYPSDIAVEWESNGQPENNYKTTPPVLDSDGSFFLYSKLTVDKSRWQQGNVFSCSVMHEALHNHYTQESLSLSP
light: B1 light
notes: as for B1
Take B5: the relative binding activity in assay [1] is 70 GpH7-B3/GpL16-k0 = 100; in assay [2], 11 GpH7-B3/GpL16-k0 = 100; in assay [3], 0 GpH7-B3/GpL16-k0 = 100; in assay [4] it was 53 GpH7-B3/GpL16-k0 = 100; in assay [5] it was -2 GpH7-B3/GpL16-k0 = 100.

B6: GpH7-B3/GpL16-k0 variant D270T (antibody, human IgG1)
heavy: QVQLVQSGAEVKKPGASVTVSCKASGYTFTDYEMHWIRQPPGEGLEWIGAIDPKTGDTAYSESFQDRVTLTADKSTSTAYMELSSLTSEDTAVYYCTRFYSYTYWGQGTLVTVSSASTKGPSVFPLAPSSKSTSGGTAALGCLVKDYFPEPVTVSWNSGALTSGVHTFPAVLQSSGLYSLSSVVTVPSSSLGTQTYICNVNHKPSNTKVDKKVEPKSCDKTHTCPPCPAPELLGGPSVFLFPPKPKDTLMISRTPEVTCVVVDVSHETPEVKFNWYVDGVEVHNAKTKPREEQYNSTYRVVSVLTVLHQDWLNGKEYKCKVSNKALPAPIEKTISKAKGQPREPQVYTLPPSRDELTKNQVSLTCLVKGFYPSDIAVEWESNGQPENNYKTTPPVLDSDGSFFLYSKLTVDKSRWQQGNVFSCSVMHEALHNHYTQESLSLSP
light: B1 light
notes: as for B1
On to B6, for which the relative binding activity is 81 GpH7-B3/GpL16-k0 = 100 in assay [1], 1 GpH7-B3/GpL16-k0 = 100 in assay [3], 38 GpH7-B3/GpL16-k0 = 100 in assay [4] and 2 GpH7-B3/GpL16-k0 = 100 in assay [5].

B7: GpH7-B3/GpL16-k0 variant D270G (antibody, human IgG1)
heavy: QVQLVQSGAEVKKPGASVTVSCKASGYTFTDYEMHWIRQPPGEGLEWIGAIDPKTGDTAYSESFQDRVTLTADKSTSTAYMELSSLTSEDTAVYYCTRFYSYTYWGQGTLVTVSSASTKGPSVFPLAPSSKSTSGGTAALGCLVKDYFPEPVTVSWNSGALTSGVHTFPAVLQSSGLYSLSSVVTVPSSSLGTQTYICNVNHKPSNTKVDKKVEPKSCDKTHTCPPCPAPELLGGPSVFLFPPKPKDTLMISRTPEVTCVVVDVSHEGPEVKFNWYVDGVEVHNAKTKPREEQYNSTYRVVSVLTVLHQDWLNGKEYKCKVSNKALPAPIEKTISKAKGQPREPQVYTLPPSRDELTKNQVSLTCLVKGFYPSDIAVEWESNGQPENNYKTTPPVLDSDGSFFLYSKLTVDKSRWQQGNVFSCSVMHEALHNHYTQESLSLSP
light: B1 light
notes: as for B1
With B7, the relative binding activity was 82 GpH7-B3/GpL16-k0 = 100 in assay [1]; 6 GpH7-B3/GpL16-k0 = 100 in assay [2]; 3 GpH7-B3/GpL16-k0 = 100 in assay [3]; 29 GpH7-B3/GpL16-k0 = 100 in assay [4]; 3 GpH7-B3/GpL16-k0 = 100 in assay [5].

B8: GpH7-B3/GpL16-k0 variant D270Y (antibody, human IgG1)
heavy: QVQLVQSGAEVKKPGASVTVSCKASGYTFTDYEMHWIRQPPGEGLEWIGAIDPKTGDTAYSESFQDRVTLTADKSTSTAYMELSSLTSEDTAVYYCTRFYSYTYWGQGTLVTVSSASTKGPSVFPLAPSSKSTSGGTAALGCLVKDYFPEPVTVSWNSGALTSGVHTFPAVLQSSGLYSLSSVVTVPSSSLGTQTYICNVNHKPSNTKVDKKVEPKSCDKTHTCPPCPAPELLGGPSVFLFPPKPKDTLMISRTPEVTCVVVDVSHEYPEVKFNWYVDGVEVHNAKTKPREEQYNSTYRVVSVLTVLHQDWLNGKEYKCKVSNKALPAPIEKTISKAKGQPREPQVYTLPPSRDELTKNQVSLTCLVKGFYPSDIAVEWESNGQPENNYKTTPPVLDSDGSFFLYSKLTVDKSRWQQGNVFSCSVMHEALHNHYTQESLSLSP
light: B1 light
notes: as for B1
Regarding B8, the relative binding activity in assay [1] was 78 GpH7-B3/GpL16-k0 = 100; in assay [3], -2 GpH7-B3/GpL16-k0 = 100; in assay [4] it was 53 GpH7-B3/GpL16-k0 = 100; in assay [5], -2 GpH7-B3/GpL16-k0 = 100.

B9: GpH7-B3/GpL16-k0 variant Y296P (antibody, human IgG1)
heavy: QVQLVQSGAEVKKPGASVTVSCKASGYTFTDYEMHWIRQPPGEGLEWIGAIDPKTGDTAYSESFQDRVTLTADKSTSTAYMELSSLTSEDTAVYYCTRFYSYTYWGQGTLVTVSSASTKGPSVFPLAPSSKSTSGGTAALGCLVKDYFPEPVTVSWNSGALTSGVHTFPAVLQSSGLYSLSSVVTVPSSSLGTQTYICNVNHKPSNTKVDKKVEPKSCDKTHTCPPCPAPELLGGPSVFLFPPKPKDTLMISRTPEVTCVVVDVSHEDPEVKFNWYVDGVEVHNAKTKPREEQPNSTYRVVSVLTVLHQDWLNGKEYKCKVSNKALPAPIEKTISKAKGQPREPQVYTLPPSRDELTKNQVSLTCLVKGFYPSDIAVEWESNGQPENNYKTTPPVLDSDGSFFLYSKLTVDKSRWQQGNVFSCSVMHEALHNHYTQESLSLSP
light: B1 light
notes: as for B1
For the molecule B9, the relative binding activity is 45 GpH7-B3/GpL16-k0 = 100 in assay [1], 10 GpH7-B3/GpL16-k0 = 100 in assay [3], 8 GpH7-B3/GpL16-k0 = 100 in assay [4] and 7 GpH7-B3/GpL16-k0 = 100 in assay [5].

B10: GpH7-B3/GpL16-k0 variant D270A (antibody, human IgG1)
heavy: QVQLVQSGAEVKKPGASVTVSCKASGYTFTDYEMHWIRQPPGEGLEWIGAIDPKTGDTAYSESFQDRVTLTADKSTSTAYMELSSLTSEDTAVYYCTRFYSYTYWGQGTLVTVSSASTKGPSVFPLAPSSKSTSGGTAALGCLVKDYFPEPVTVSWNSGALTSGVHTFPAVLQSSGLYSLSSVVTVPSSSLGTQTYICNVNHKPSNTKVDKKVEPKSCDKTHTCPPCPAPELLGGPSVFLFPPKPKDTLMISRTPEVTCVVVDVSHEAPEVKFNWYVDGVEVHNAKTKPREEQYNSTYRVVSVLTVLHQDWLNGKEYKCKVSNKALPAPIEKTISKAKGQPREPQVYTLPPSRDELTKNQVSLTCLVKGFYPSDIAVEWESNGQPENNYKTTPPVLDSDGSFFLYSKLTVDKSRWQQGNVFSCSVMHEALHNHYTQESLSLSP
light: B1 light
notes: as for B1
As to B10, the relative binding activity in assay [1] was 87 GpH7-B3/GpL16-k0 = 100; in assay [2] it was 23 GpH7-B3/GpL16-k0 = 100; in assay [3], 3 GpH7-B3/GpL16-k0 = 100; in assay [4] it was 66 GpH7-B3/GpL16-k0 = 100; in assay [5], 5 GpH7-B3/GpL16-k0 = 100.

B11: GpH7-B3/GpL16-k0 variant D270F (antibody, human IgG1)
heavy: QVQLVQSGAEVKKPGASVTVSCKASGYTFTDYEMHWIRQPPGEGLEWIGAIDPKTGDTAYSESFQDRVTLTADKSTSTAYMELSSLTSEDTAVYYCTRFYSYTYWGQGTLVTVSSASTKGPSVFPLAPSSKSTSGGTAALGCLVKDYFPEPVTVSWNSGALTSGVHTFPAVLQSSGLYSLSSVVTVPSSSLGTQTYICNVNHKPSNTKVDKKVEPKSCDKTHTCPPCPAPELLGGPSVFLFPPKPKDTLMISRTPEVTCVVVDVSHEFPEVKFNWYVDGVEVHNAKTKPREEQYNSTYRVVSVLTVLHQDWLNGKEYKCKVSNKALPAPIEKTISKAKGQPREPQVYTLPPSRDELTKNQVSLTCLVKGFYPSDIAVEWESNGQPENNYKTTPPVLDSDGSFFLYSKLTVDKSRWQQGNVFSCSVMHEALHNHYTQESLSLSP
light: B1 light
notes: as for B1
On to B11, for which the relative binding activity worked out at 88 GpH7-B3/GpL16-k0 = 100 in assay [1]; 12 GpH7-B3/GpL16-k0 = 100 in assay [2]; 5 GpH7-B3/GpL16-k0 = 100 in assay [3]; 62 GpH7-B3/GpL16-k0 = 100 in assay [4]; 5 GpH7-B3/GpL16-k0 = 100 in assay [5].
